Data published in patent US5928941.

Tested on: RKLF full length (Homo sapiens)
Assay: cell_activity
Conditions: BAEC cotransfection, CAT repression

CAC-tkCAT reporter (single beta-globin CACCC site)
activity (% decrease in promoter activity): 90
